# Where two headings read alike, the source gives them in different places.
# T1: HLA-DR4 on L fibroblasts transfected with HLA-DR4 (human)
# T1 chain 1: not shown
# T1 chain 2: not shown
# T2: HLA-DR1 on L fibroblasts transfected with HLA-DR1 (L57.23) (human)
# T2 chain 1: not shown
# T2 chain 2: not shown
# T3: recombinant water-soluble 'empty' HLA-DR1 (DRB1*0101) (human)
# T3 chain 1: not shown
# T3 chain 2: not shown
# T4: recombinant water-soluble 'empty' HLA-DR4 (DRB1*0401) (human)
# T4 chain 1: not shown
# T4 chain 2: not shown
# Legend:
# [1] = target: T1, HLA-DR4 on L fibroblasts transfected …; experiment: cell-based or functional assay
# [2] = target: T2, HLA-DR1 on L fibroblasts transfected …; experiment: cell-based or functional assay
# [3] = target: T3, recombinant water-soluble 'empty' …
# [4] = target: T3, recombinant water-soluble 'empty' …; experiment: competitive binding ELISA on recombinant HLA-DR1; competitor biotinylated YEAK
# [5] = target: T4, recombinant water-soluble 'empty' …
# [6] = target: T4, recombinant water-soluble 'empty' …; experiment: competitive binding ELISA on recombinant HLA-DR4; competitor biotinylated YEAK
binder,measurement,setting,value
"APKYVKQNTLKLATA (modifications not checked) [HA 306-318 bracketed by alanines at N- and C-terminals, …]",inhibition of the DR4 3838 T cell clone (IL-2 secretion),[1],< 60%
same,inhibition of the DR4 D3 T cell clone (IL-2 secretion),[1],< 60%
same,inhibition of the response of 3.19 T cells (IL-2 secretion),[2],> 98%
same,inhibition of the response of 19.3 T cells (IL-2 secretion),[2],> 95%
same,affinity determined by competition,[3],13 µM
same,affinity determined by competition,[4],3.3 µM
same,affinity determined by competition,[5],26 µM
same,affinity determined by competition,[6],8.2 µM

# Reference: patent US20040006022A1 (Harvard, published 2004)
